# Assay results published in the supplement of paper PMC10065799, “High-throughput profiling of sequence recognition by tyrosine kinases and SH2 domains using bacterial peptide display” (eLife, 2023).
# Target: Jak2 (UniProt O60674)
# Assay: phosphorylation enrichment, bacterial display (enrichment ratio); higher = better substrate or ligand; peptides without Tyr show the background
# 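Also: 11-residue human phosphosite peptides and single-mutation variants displayed on the E. coli surface, counted by deep sequencing, each peptide's frequency after selection divided by its frequency in the unselected input library; frequency after pTyr selection over input frequency; kinase dosed for 20-30% of maximal phosphorylation in three min.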
# Jak2, sequence (O60674 whole entry, looked up): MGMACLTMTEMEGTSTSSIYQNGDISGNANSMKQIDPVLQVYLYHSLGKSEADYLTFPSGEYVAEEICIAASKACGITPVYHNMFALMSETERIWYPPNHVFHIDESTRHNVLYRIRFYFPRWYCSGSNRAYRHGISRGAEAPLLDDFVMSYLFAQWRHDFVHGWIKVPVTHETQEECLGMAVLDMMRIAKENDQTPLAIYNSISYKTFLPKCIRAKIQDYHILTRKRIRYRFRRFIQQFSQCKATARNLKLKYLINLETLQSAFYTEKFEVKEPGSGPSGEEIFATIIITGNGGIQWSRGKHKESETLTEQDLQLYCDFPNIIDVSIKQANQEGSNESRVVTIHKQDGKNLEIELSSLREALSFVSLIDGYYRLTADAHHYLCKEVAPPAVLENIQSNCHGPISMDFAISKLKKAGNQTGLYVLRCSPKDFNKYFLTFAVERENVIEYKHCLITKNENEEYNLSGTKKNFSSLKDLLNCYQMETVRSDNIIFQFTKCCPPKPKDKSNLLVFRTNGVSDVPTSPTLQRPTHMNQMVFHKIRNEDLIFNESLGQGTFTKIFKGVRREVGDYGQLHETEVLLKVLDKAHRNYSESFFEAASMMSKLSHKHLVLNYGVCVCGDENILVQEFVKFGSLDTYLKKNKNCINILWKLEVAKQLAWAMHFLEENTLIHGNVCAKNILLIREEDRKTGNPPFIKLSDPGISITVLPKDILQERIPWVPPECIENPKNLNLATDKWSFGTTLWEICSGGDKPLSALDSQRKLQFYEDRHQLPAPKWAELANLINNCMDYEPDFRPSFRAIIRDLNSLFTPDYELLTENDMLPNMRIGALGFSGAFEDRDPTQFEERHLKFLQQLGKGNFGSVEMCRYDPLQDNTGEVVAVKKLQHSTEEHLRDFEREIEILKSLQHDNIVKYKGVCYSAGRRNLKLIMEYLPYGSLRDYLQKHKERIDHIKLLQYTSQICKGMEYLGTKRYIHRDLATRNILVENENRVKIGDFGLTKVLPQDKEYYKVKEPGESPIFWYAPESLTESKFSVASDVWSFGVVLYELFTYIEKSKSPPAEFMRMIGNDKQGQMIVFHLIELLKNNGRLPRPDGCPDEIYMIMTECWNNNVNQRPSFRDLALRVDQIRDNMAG
row,Sequence,phosphorylation enrichment
1,GPKFVYDEIDN [ACOX1_Y232_G231V],0.92
2,IVFVIYDEVVK [SLC25A1_Y297],1.26
3,ASFGPYTRVQS [FOXL2_Y258_YF],0.669
4,PLKYLYPNIDR [STAT1_Y668_K673R],0.859
5,ANSSFYSTRSA [NUMA1_Y1836],0.575
6,REHTVYWEPRK [MAGEA4_Y240_G241W],0.888
7,RGRSTYFWPSP [GAGE12J_Y9_R13S_YF],0.673
8,FDDIANIRKTL [PIK3CA_Y1021_Y1021N],0.496
9,SRPTQYSSFAC [SPEM2_Y104_S108A],0.733
10,VKFGAYINDFK [GLB1_Y488_N484K_YF],1.05
11,LDFNEYFRFLN [HPRT1_Y198_D201Y_YF],6.54
12,VNFGAYINNFK [GLB1_Y488_D491N_YF],0.662
13,DLAGRYFALRS [CKB_Y173_K177R_YF],0.761
14,MSPPGYKLLTG [GJA1_Y286_V289L],0.669
15,VATRWYPSPEL [CDKL5_Y177_R178P],0.763
16,FYRKVYHLASV [RBL1_Y796],0.667
17,IYSGIYYKPES [L2HGDH_Y102_H98Y],7.32
18,GGMAKYTRLHN [EHHADH_Y4_E3K],0.641
19,KLRMEYLSLMH [NCKIPSD_Y660],0.976
20,NFRTTYINANE [KCNH2_Y475_V476I],0.843
21,TSRVLYPNDNF [PYGM_Y281_I276T],0.638
22,DDPRRYQKFGF [OAS1_Y362_YF],0.674
23,YSGLAYTMERS [GLUD1_Y512_H507Y],0.873
24,LLQKTYNFNVL [SLC4A1_Y553_P548L_YF],0.81
25,HGAGHYEDTIL [ALK_Y1604_P1599H],1
26,PKSLFYLLLKP [TRPC6_Y775_L780P],1.73
27,LEYAKYGSLRG [RET_Y809_V804L],0.55
28,KNAEKYAEEDR [HSPA9_Y568],0.822
29,QMEKIYTQQIQ [CCNB1IP1_Y125],1.07

# Target: Hck (UniProt P08631)
# Assay: as above
# Hck, sequence (P08631 whole entry, looked up): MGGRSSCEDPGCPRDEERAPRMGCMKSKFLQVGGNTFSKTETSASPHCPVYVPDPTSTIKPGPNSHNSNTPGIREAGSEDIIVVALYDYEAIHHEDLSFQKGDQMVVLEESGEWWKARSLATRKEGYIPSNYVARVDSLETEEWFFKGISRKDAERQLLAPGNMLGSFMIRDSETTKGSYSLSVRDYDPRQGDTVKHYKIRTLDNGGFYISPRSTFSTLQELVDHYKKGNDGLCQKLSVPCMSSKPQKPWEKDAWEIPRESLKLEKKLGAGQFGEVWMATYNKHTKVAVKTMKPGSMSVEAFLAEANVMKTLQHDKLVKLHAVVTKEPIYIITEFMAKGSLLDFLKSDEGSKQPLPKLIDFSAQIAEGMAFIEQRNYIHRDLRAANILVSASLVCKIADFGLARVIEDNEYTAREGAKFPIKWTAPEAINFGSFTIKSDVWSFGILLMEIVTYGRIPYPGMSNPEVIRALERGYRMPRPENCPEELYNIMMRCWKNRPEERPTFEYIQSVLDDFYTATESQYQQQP
row,Sequence,phosphorylation enrichment
1,GPKFVYDEIDN [ACOX1_Y232_G231V],0.467
2,IVFVIYDEVVK [SLC25A1_Y297],1.44
3,ASFGPYTRVQS [FOXL2_Y258_YF],0.483
4,PLKYLYPNIDR [STAT1_Y668_K673R],0.501
5,ANSSFYSTRSA [NUMA1_Y1836],1.07
6,REHTVYWEPRK [MAGEA4_Y240_G241W],5.92
7,RGRSTYFWPSP [GAGE12J_Y9_R13S_YF],0.824
8,FDDIANIRKTL [PIK3CA_Y1021_Y1021N],0.275
9,SRPTQYSSFAC [SPEM2_Y104_S108A],0.511
10,VKFGAYINDFK [GLB1_Y488_N484K_YF],0.523
11,LDFNEYFRFLN [HPRT1_Y198_D201Y_YF],1.08
12,VNFGAYINNFK [GLB1_Y488_D491N_YF],0.523
13,DLAGRYFALRS [CKB_Y173_K177R_YF],0.4
14,MSPPGYKLLTG [GJA1_Y286_V289L],0.405
15,VATRWYPSPEL [CDKL5_Y177_R178P],0.504
16,FYRKVYHLASV [RBL1_Y796],0.422
17,IYSGIYYKPES [L2HGDH_Y102_H98Y],9.78
18,GGMAKYTRLHN [EHHADH_Y4_E3K],0.343
19,KLRMEYLSLMH [NCKIPSD_Y660],0.515
20,NFRTTYINANE [KCNH2_Y475_V476I],0.462
21,TSRVLYPNDNF [PYGM_Y281_I276T],0.558
22,DDPRRYQKFGF [OAS1_Y362_YF],0.398
23,YSGLAYTMERS [GLUD1_Y512_H507Y],1.64
24,LLQKTYNFNVL [SLC4A1_Y553_P548L_YF],0.88
25,HGAGHYEDTIL [ALK_Y1604_P1599H],0.724
26,PKSLFYLLLKP [TRPC6_Y775_L780P],0.513
27,LEYAKYGSLRG [RET_Y809_V804L],2.57
28,KNAEKYAEEDR [HSPA9_Y568],0.571
29,QMEKIYTQQIQ [CCNB1IP1_Y125],0.628

# Target: FGFR3 (UniProt P22607)
# Assay: as above
# FGFR3, sequence (P22607 whole entry, looked up): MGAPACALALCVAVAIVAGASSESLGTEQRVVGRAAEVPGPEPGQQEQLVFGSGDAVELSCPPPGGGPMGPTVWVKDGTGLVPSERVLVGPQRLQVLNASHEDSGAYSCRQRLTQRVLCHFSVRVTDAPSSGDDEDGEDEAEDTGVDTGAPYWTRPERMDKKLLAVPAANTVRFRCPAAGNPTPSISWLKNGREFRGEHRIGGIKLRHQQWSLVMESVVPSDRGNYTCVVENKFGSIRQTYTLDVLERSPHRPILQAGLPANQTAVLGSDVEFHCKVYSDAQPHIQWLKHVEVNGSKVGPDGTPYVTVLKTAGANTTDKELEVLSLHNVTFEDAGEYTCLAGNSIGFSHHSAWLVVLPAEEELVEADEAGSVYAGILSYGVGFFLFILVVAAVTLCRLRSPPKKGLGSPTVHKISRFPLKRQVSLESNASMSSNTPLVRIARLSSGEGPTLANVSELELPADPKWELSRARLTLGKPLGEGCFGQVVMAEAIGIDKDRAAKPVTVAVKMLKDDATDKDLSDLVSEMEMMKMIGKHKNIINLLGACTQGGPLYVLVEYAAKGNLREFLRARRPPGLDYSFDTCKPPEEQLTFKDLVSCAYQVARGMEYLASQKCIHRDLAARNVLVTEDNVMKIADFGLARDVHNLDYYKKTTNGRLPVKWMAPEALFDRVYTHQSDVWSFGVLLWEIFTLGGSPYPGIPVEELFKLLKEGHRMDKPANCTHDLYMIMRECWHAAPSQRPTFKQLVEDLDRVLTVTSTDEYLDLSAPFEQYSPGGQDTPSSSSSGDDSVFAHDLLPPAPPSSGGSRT
row,Sequence,phosphorylation enrichment
1,GPKFVYDEIDN [ACOX1_Y232_G231V],0.57
2,IVFVIYDEVVK [SLC25A1_Y297],0.863
3,ASFGPYTRVQS [FOXL2_Y258_YF],0.494
4,PLKYLYPNIDR [STAT1_Y668_K673R],0.58
5,ANSSFYSTRSA [NUMA1_Y1836],0.41
6,REHTVYWEPRK [MAGEA4_Y240_G241W],2.42
7,RGRSTYFWPSP [GAGE12J_Y9_R13S_YF],0.615
8,FDDIANIRKTL [PIK3CA_Y1021_Y1021N],0.513
9,SRPTQYSSFAC [SPEM2_Y104_S108A],0.533
10,VKFGAYINDFK [GLB1_Y488_N484K_YF],0.879
11,LDFNEYFRFLN [HPRT1_Y198_D201Y_YF],2.1
12,VNFGAYINNFK [GLB1_Y488_D491N_YF],0.689
13,DLAGRYFALRS [CKB_Y173_K177R_YF],0.394
14,MSPPGYKLLTG [GJA1_Y286_V289L],0.599
15,VATRWYPSPEL [CDKL5_Y177_R178P],0.541
16,FYRKVYHLASV [RBL1_Y796],0.673
17,IYSGIYYKPES [L2HGDH_Y102_H98Y],7.9
18,GGMAKYTRLHN [EHHADH_Y4_E3K],0.398
19,KLRMEYLSLMH [NCKIPSD_Y660],0.737
20,NFRTTYINANE [KCNH2_Y475_V476I],0.506
21,TSRVLYPNDNF [PYGM_Y281_I276T],0.436
22,DDPRRYQKFGF [OAS1_Y362_YF],0.528
23,YSGLAYTMERS [GLUD1_Y512_H507Y],0.558
24,LLQKTYNFNVL [SLC4A1_Y553_P548L_YF],1.24
25,HGAGHYEDTIL [ALK_Y1604_P1599H],0.978
26,PKSLFYLLLKP [TRPC6_Y775_L780P],1.12
27,LEYAKYGSLRG [RET_Y809_V804L],0.618
28,KNAEKYAEEDR [HSPA9_Y568],0.709
29,QMEKIYTQQIQ [CCNB1IP1_Y125],0.5

# Target: MERTK (UniProt Q12866)
# Assay: as above
# MERTK, sequence (Q12866 whole entry, looked up): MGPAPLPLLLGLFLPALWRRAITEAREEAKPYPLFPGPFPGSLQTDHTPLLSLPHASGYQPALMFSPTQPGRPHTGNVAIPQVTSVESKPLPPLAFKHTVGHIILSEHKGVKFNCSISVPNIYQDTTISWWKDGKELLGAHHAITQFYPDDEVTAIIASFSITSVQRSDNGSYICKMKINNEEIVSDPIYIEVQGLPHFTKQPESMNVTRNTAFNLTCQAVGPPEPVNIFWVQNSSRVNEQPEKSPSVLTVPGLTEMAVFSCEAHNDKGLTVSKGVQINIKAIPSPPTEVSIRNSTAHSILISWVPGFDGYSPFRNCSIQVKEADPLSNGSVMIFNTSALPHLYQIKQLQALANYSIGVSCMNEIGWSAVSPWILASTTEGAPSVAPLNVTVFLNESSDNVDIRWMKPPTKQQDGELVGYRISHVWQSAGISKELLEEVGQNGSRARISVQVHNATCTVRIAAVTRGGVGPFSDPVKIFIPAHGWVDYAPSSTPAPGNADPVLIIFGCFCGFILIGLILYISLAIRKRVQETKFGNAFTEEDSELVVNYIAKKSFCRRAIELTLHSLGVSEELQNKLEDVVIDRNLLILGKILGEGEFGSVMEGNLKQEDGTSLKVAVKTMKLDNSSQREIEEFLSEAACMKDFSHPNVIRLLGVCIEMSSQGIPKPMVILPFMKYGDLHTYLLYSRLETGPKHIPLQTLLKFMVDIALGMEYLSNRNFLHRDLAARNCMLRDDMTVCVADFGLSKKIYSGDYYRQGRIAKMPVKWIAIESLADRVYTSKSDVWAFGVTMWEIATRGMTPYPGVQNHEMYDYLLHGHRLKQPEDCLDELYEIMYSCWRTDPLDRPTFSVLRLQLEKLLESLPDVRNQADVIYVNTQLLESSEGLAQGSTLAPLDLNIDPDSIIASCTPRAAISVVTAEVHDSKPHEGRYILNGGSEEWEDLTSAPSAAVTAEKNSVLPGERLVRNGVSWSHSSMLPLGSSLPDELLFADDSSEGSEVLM
row,Sequence,phosphorylation enrichment
1,GPKFVYDEIDN [ACOX1_Y232_G231V],0.413
2,IVFVIYDEVVK [SLC25A1_Y297],0.576
3,ASFGPYTRVQS [FOXL2_Y258_YF],0.498
4,PLKYLYPNIDR [STAT1_Y668_K673R],0.435
5,ANSSFYSTRSA [NUMA1_Y1836],0.523
6,REHTVYWEPRK [MAGEA4_Y240_G241W],3.77
7,RGRSTYFWPSP [GAGE12J_Y9_R13S_YF],0.947
8,FDDIANIRKTL [PIK3CA_Y1021_Y1021N],0.386
9,SRPTQYSSFAC [SPEM2_Y104_S108A],0.519
10,VKFGAYINDFK [GLB1_Y488_N484K_YF],0.412
11,LDFNEYFRFLN [HPRT1_Y198_D201Y_YF],0.573
12,VNFGAYINNFK [GLB1_Y488_D491N_YF],0.362
13,DLAGRYFALRS [CKB_Y173_K177R_YF],0.476
14,MSPPGYKLLTG [GJA1_Y286_V289L],0.465
15,VATRWYPSPEL [CDKL5_Y177_R178P],0.522
16,FYRKVYHLASV [RBL1_Y796],0.39
17,IYSGIYYKPES [L2HGDH_Y102_H98Y],11.5
18,GGMAKYTRLHN [EHHADH_Y4_E3K],0.407
19,KLRMEYLSLMH [NCKIPSD_Y660],0.419
20,NFRTTYINANE [KCNH2_Y475_V476I],0.476
21,TSRVLYPNDNF [PYGM_Y281_I276T],0.408
22,DDPRRYQKFGF [OAS1_Y362_YF],0.475
23,YSGLAYTMERS [GLUD1_Y512_H507Y],0.849
24,LLQKTYNFNVL [SLC4A1_Y553_P548L_YF],0.997
25,HGAGHYEDTIL [ALK_Y1604_P1599H],0.682
26,PKSLFYLLLKP [TRPC6_Y775_L780P],0.963
27,LEYAKYGSLRG [RET_Y809_V804L],0.687
28,KNAEKYAEEDR [HSPA9_Y568],0.444
29,QMEKIYTQQIQ [CCNB1IP1_Y125],1.19
